Source: patent WO2012175740A1 (dated 2012)
Changes are numbered by the printed parent chain.

T1: cyno IgE c(epsilon)2-c(epsilon)3-c(epsilon)4 Fc fragment with C-terminal (His)10 tag (cynomolgus monkey)
T1 construct: Made in HEK-EBNA cells with the murine Ig kappa leader; Biotinylated in the Alphascreen; also called cyno IgE Fc; cyno IgE-Fc
T1 chain: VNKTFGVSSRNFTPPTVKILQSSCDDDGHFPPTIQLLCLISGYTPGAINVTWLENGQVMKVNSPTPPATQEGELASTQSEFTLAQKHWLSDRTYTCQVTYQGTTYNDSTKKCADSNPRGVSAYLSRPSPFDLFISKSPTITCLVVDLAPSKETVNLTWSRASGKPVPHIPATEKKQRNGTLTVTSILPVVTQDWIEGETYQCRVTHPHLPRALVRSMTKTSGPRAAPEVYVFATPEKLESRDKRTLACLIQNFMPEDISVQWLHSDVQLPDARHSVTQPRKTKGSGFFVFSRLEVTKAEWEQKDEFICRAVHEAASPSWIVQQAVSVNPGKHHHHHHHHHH

B1: Nanobody 39B2 (VHH)
VHH: EVQLVESGGGLVQPGGSLRLSCAASGFTFGSYDMSWVRQAPGKGPEWVSAINSGGGSTYYADSVKGRFTISRDNAKNTLYLQMNSLKPEDTAVYYCSTDLGPWIEGTMEEYEYEYWGQGTQVTVSS
notes: also called 39B02; not shown: C-terminal c-myc tag and His6 tag
B2: Nanobody 39D11 (VHH)
VHH: EVQLVESGGGLVQPGGSLRLSCAASGFTFGSYDMSWVRQAPGKGPEWVSSIDTGGDITHYADSVKGRFTISRDNANNMLYLQMNSLKPEDTAVYWCATDEDYALGPNEYDYYGQGTQVTVSS
notes: not shown: C-terminal c-myc tag and His6 tag
B3: Nanobody 36G5 (VHH)
VHH: EVQLVESGGGLVQPGGSLRLSCVASGFTFGSYDMSWVRQAPGKRPEWVSAINSGGGSTYYADSVKGRFTISRDNAKNTLYLQMNSLKPEDTAVYYCATDEDYALGPNEYDYYGQGTQVTVSS
notes: as for B2
B4: Nanobody 39D8 (VHH)
VHH: B2 VHH with E89G
notes: also called 39D08; not shown: C-terminal c-myc tag and His6 tag
B5: Nanobody 42D7 (VHH)
VHH: B2 VHH with S17P
notes: as for B2
B6: Nanobody 42G5 (VHH)
VHH: B2 VHH with Q13R, S31N, S63P, N76A, M78T, W95Y
notes: as for B2

The binders below were run against T2, human IgE (Diatec, Oslo, Norway) (human, UniProt P01854-1 1-428) (assay: cell-based or functional assay).
T2 sequence (P01854 other isoform, or with tags, fused parts or gaps): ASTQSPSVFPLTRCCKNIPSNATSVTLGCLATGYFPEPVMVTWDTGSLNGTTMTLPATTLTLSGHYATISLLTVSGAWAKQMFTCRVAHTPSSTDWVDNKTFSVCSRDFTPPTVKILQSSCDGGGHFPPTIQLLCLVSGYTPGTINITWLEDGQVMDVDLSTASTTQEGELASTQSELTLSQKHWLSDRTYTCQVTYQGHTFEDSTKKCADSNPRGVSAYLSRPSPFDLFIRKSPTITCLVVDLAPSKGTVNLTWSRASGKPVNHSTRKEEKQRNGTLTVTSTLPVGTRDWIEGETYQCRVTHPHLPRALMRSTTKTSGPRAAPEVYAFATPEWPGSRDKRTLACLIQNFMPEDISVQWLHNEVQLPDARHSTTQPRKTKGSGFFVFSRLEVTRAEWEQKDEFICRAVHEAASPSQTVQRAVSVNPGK
For B1, the “block of degranulation at 500 nM Nanobody” value (shortened to “block of degranulation”) was 25%. In the case of B2, the “block of degranulation” value is reported as over 95%. For B3, the “block of degranulation” value was over 95%. With B4 the “block of degranulation” value was over 95%.

The binders below were run against T2, human IgE (Diatec, Oslo, Norway) (assay: ELISA, competition with coated Fc(epsilon)RI for HuIgE).
B1 was tested, and the “% inhibition by 500 nM Nanobody” value was 69.3% and the IC50 was 39.4 nM. In the case of B2, the “% inhibition by 500 nM Nanobody” value is reported as 99.5% and the IC50 is reported as 0.511 nM. In the case of B3, the “% inhibition by 500 nM Nanobody” value is reported as 98.6% and the IC50 is reported as 2.96 nM. With B4 the “% inhibition by 500 nM Nanobody” value was 99.4% and the IC50 was 0.55 nM. In the case of B5, the “% inhibition by 500 nM Nanobody” value is reported as 99.6% and the IC50 is reported as 0.959 nM. B6 was tested, and the “% inhibition by 500 nM Nanobody” value was 98.1% and the IC50 was 8.38 nM.

The binders below were run against T2, human IgE (Diatec, Oslo, Norway) (assay: ELISA, competition with coated Fc(epsilon)RII for HuIgE).
B1 was tested, and the “fold less potent (against 39D11, 36G5 and Reference Fab)” value was 10 fold.

Target: T1, cyno IgE …
Experiment: Alphascreen, competition with HuFc(epsilon)RI(alpha)Fc for cyno IgE Fc
With B2 the “% inhibition at 250 nM Nanobody” value was 93.5% and the IC50 was 0.119 nM. With B3 the “% inhibition at 250 nM Nanobody” value was 88.1% and the IC50 was 0.584 nM. In the case of B4, the “% inhibition at 250 nM Nanobody” value is reported as 93.6% and the IC50 is reported as 0.0742 nM. B5 was tested, and the “% inhibition at 250 nM Nanobody” value was 92.7% and the IC50 was 0.127 nM. With B6 the “% inhibition at 250 nM Nanobody” value was 91.2% and the IC50 was 0.96 nM.
